# Results as given in US20230189818A1, “RNA-BASED CONTROL OF BOTRYTIS” (priority 2021, published 2023).
# B1: GS349: dsRNA trigger targeting B. cinerea CDC42 (XM_001545642.2); trigger SEQ ID NO 14, RNA 26, reverse complement 38 (nucleic acid, listed as Botrytis cinerea)
# sense: GUUGUCUUGUCUCGCUCAAGCUUGUCCUGUCUGGUCACUUUUCUUUCUGCCUGAUAAUCCAGACCUCGAAAAUAACCAAAAGAUUGGAAAUCGUUUGCUCAUCUUGCAUGCAUUAUUACUUUCCUGGAUCAAUCUCAUUCAACUCGUUCUCGUGCAUUUCAUUCAACCUCAACCCCUACUUUCAGUCAAUUCAAUUUAAUUCAAUCAUUCAAAUCUUUCAUUUCGCACACUUCACAUUCAACCAUCCUCUCUCAAUCAAAUAUCACCACCUCUCUUAUCGAACGUCAUUUUGCAUACAAUCAAUUCCUACAGACCGAGCGCAACUCGAUACAACCAUCGAAUAACUUCUCACACUUGCUUGUUGAAUUGAUUACUGAAGAAAGUGGAUUUCAAAGACCGAUUUUCCCCCUAGAUAUUCAAGAACGGCUUAUUCUUGUCUCGAGACAAAAC
# antisense: GUUUUGUCUCGAGACAAGAAUAAGCCGUUCUUGAAUAUCUAGGGGGAAAAUCGGUCUUUGAAAUCCACUUUCUUCAGUAAUCAAUUCAACAAGCAAGUGUGAGAAGUUAUUCGAUGGUUGUAUCGAGUUGCGCUCGGUCUGUAGGAAUUGAUUGUAUGCAAAAUGACGUUCGAUAAGAGAGGUGGUGAUAUUUGAUUGAGAGAGGAUGGUUGAAUGUGAAGUGUGCGAAAUGAAAGAUUUGAAUGAUUGAAUUAAAUUGAAUUGACUGAAAGUAGGGGUUGAGGUUGAAUGAAAUGCACGAGAACGAGUUGAAUGAGAUUGAUCCAGGAAAGUAAUAAUGCAUGCAAGAUGAGCAAACGAUUUCCAAUCUUUUGGUUAUUUUCGAGGUCUGGAUUAUCAGGCAGAAAGAAAAGUGACCAGACAGGACAAGCUUGAGCGAGACAAGACAAC
# B2: GS2303: dsRNA trigger targeting B. cinerea Bcded1 (XM_001550339.2); trigger SEQ ID NO 24, RNA 36, reverse complement 48 (nucleic acid, listed as Botrytis cinerea)
# sense: GGGCUAUAUAAGCUUUCAUCUAGGUUUUCCAAGAAACGCAUUACGAUAGACAUGUUCUCCAAAAAUCUUACUGGUCCUGCUUUCAGCAUUUCCAUGGAUCAUGAAGUCCUCCACUAUGGAAGAUUUGCAAAAUAUUUUCGACAUUGCAUUUUGCUGCAUUUCGCAUUUCUAGAUAGAAAAAAAGUGGGAUUCAUAUUCUCGAUAUUUUCUUCGUUGUCUUUUAUUCACAAGACACAUGGCAAGGGAGGAUACCAUUUGAGAGCUUGAAUUGAAGGCUUUCCUCUUACUUUUUUUAUUUUUCACAUCAUCUACGAGUGGGCGUCUUUUACGAUCAAAUCGAUAUACGACAGUGGCACAAAAUAGAAUAGGCAUUUCUCUUCUUAAAAAAGAUUUAAGGGAAGAGUUGGUGCUUGUUCUCUAUAACGCUGAUGGCAUUCGGAAGUGCUCCUGUCCAUUCAGGCUGAGACUGAGACCCAAAAUGUUGGCAGGUACGGCAGAAAGAAGUCUGCUUCAUAUGAUUGAUGGAGGAAGAAAGAAAUAUGGAAUGCGAUGGAUGAGUAAUUACUUUAAAUGAAUAUGAAAA
# antisense: UUUUCAUAUUCAUUUAAAGUAAUUACUCAUCCAUCGCAUUCCAUAUUUCUUUCUUCCUCCAUCAAUCAUAUGAAGCAGACUUCUUUCUGCCGUACCUGCCAACAUUUUGGGUCUCAGUCUCAGCCUGAAUGGACAGGAGCACUUCCGAAUGCCAUCAGCGUUAUAGAGAACAAGCACCAACUCUUCCCUUAAAUCUUUUUUAAGAAGAGAAAUGCCUAUUCUAUUUUGUGCCACUGUCGUAUAUCGAUUUGAUCGUAAAAGACGCCCACUCGUAGAUGAUGUGAAAAAUAAAAAAAGUAAGAGGAAAGCCUUCAAUUCAAGCUCUCAAAUGGUAUCCUCCCUUGCCAUGUGUCUUGUGAAUAAAAGACAACGAAGAAAAUAUCGAGAAUAUGAAUCCCACUUUUUUUCUAUCUAGAAAUGCGAAAUGCAGCAAAAUGCAAUGUCGAAAAUAUUUUGCAAAUCUUCCAUAGUGGAGGACUUCAUGAUCCAUGGAAAUGCUGAAAGCAGGACCAGUAAGAUUUUUGGAGAACAUGUCUAUCGUAAUGCGUUUCUUGGAAAACCUAGAUGAAAGCUUAUAUAGCCC
# B3: GS2280: dsRNA trigger targeting B. cinerea Bcmcm4 (XM_024696090.1); trigger SEQ ID NO 21, RNA 33, reverse complement 45 (nucleic acid, listed as Botrytis cinerea)
# sense: AAUGUCCUCGUCCGGUUUGUAAAUCUCCAAACUCCAUGCAGAUUGUACACAACAGGUCUGGAUUCAUGGAUAAGCAAGUUAUCAAGCUUCAAGAAACUCCAGAUUCCGUUCCUGCUGGUCAAACACCACAUUCCGUCUCGAUGUGUGCAUAUGAUGAGUUGGUGGAUCUGUGCAAAGCUGGUGACAGAGUUGAGAUUACUGGUAUCUUCAAAGCUAGUCCAGUUCGUGUCAAUCCUCGCCAAAGAACUCUCAAAAGCAUUUAUAAAACGUACAUCGACGUUUUACACAUUCAAAAGGUUGACAAGAAAAGAAUGGGAAUUGAUGCUUCGACCGUUGAGCAAGAAAUAUCCGAUCAGUUGACAGGCAACAUUGAAGAAACUAGAAAGGUUUCUGAAGAGGAGGAAGAAAAAAUCAGAGAAACCGCUGCAAGACCCGAUAUCUACGAACUUCUAUCUCGAUCCCUCGCACCUAGUAUUUUUGAGAUGGACGAUGUUAAGAAGGGUAUCUUGCUUCAAUUAUUUGGUGGAACUAACAAGUCUUUCGAAAAAGGAGGAAGUCCAAAAUACAGAGGAGAUAUCAAUAUUCUAUUGU
# antisense: ACAAUAGAAUAUUGAUAUCUCCUCUGUAUUUUGGACUUCCUCCUUUUUCGAAAGACUUGUUAGUUCCACCAAAUAAUUGAAGCAAGAUACCCUUCUUAACAUCGUCCAUCUCAAAAAUACUAGGUGCGAGGGAUCGAGAUAGAAGUUCGUAGAUAUCGGGUCUUGCAGCGGUUUCUCUGAUUUUUUCUUCCUCCUCUUCAGAAACCUUUCUAGUUUCUUCAAUGUUGCCUGUCAACUGAUCGGAUAUUUCUUGCUCAACGGUCGAAGCAUCAAUUCCCAUUCUUUUCUUGUCAACCUUUUGAAUGUGUAAAACGUCGAUGUACGUUUUAUAAAUGCUUUUGAGAGUUCUUUGGCGAGGAUUGACACGAACUGGACUAGCUUUGAAGAUACCAGUAAUCUCAACUCUGUCACCAGCUUUGCACAGAUCCACCAACUCAUCAUAUGCACACAUCGAGACGGAAUGUGGUGUUUGACCAGCAGGAACGGAAUCUGGAGUUUCUUGAAGCUUGAUAACUUGCUUAUCCAUGAAUCCAGACCUGUUGUGUACAAUCUGCAUGGAGUUUGGAGAUUUACAAACCGGACGAGGACAUU
# B4: GS730: dsRNA trigger targeting B. cinerea Bcsec15 (XM_024692064.1); trigger SEQ ID NO 19, RNA 31, reverse complement 43 (nucleic acid, listed as Botrytis cinerea)
# sense: UCAACGCAGUCUCCAAAGCUUUGGAUGAAUUCGAUAACCCGGAUGUUAUUCUGCAAACCAAGAAUGUGAUAGCAUUGUUCAUCCAAACAAUGGAGGGUUGGGGAUAUUCAGUUGCCAUAUUAGAUGCUUAUGUGCUUAAGCUUUUCUAUAGAUAUGCUGAUUUGUUAAAACGGAAAUUCAGCACAGAUUUUCAACAGAUUGUGUCUACCGAUGAAUACAUGCCUAUGCCUGUCAAUAGCGAAGAAGACUUUGAUAAAAUCAUUCAAGUCAGUUGGUAUGUUCCGGACAGACCGAAAGAAGAAUACACAUUCCCCGGUGUAUUACCAUUCUCCCAGAUGUACCCAAUGUGCUGUAUAGAUAUCAGAAAUUUCCUGAAUCGAUUCUACUUCAUAAUGGAUGAUCAUUUUCAACAGCCAAACAUUAUUGAUGAGACACUUAAGAAGUCGAUAGAUGAGCUUCUGUCUGAGGAUAUUUGUGA
# antisense: UCACAAAUAUCCUCAGACAGAAGCUCAUCUAUCGACUUCUUAAGUGUCUCAUCAAUAAUGUUUGGCUGUUGAAAAUGAUCAUCCAUUAUGAAGUAGAAUCGAUUCAGGAAAUUUCUGAUAUCUAUACAGCACAUUGGGUACAUCUGGGAGAAUGGUAAUACACCGGGGAAUGUGUAUUCUUCUUUCGGUCUGUCCGGAACAUACCAACUGACUUGAAUGAUUUUAUCAAAGUCUUCUUCGCUAUUGACAGGCAUAGGCAUGUAUUCAUCGGUAGACACAAUCUGUUGAAAAUCUGUGCUGAAUUUCCGUUUUAACAAAUCAGCAUAUCUAUAGAAAAGCUUAAGCACAUAAGCAUCUAAUAUGGCAACUGAAUAUCCCCAACCCUCCAUUGUUUGGAUGAACAAUGCUAUCACAUUCUUGGUUUGCAGAAUAACAUCCGGGUUAUCGAAUUCAUCCAAAGCUUUGGAGACUGCGUUGA
# Tested on: Botrytis cinerea conidia
# Test: In vitro liquid-based assay (fungal biomass, 96-well plates, Cytation 5)
# Assay type: cell-based
# Conditions: 25 ppm dsRNA, co-incubated with conidia for three days, vs untreated control
# In short: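 Conidia (5000/mL stock) were co-incubated with dsRNA or control treatments in pH 6.0 minimal medium. Incubation ran 72 h at 23 °C, shaking at 120 rpm under continuous light. Fungal biomass was measured by brightfield imaging (8 slices per well, 2.5× lens) and expressed as average reduction versus control.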
row,Molecule,Average % Reduction in Biomass
1,B1,8%
2,B2,13%
3,B3,16%
4,B4,21%

# Same assay, conditions: 150 ppm dsRNA, co-incubated with conidia for three days, vs untreated control
row,Molecule,Average % Reduction in Biomass
1,B1,25%
2,B2,26%
3,B3,33%
4,B4,45%

# Tested on: Botrytis cinerea isolate (B05.10)
# Test: Detached leaf assay (tomato leaflets, lesion size)
# Assay type: in vivo
# Conditions: 30 ppm, five days post inoculation, vs untreated inoculated control
# In short: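 Tomato (Brandywine) detached lateral leaflets were sprayed with treatment in 0.03% Silwet L-77 24 h before inoculation. Two 10 μL drops of 1×10^5 conidia/mL in 7% grape juice were applied per leaflet, which was then incubated at 23 °C, ~75% RH, 12/12 light. Lesion diameter was measured at 5 DPI against the untreated inoculated control, ten replicates.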
row,Molecule,Average % Reduction in Lesion Size
1,B1,32.99%
2,B2,43.06%
3,B3,32.13%
4,B4,16.38%

# Same assay, conditions: 50 ppm, five days post inoculation, vs untreated inoculated control
row,Molecule,Average % Reduction in Lesion Size
1,B1,31.80%
2,B2,26.55%
3,B3,24.08%
4,B4,25.11%

# Tested on: B. cinerea
# Test: Open-air field trial on snap bean (Example 4.3, AUDPC of % disease severity)
# Assay type: in vivo, Botrytis cinerea
# Conditions: Switch 525 g ai/ha, GS349 20 and 40, GS2280 10 and 40, GS2303 10, 20 and 40, GS2297 20 g ai/ha, FIG. 9
# Protocol: RNAi compositions, each containing a dsRNA comprising a trigger sequence (GS349, GS2280, GS2303, or GS2297) described herein were evaluated for ability to control botrytis on snap bean in open-air filed trials. All test samples were formulated with RO water, propylene glycol, a linear alcohol ethoxylate, a lignosulfanate, sodium citrate dihydate, a polyacrylic acid polymer, two biocide compositions, anhydrous citric acid, and an antifoam, all of which are readily commercially available. Formulation samples were tank mixed with a standard adjuvant, the non-ionic surfactant, Activator 90 0.125%v/v. Compositions were tested at concentrations of 10, g ai/ha, 20 g ai/ha, and 40 g ai/ha. Positive controls were a chemical standard, Switch 525 g ai/ha and a biological standard, Double Nickel LC 9.4 I/ha, both of which were also tank mixed with Activator 90 0.125% v/v. As above, an untreated check was used as a negative control.
# Compositions were applied to snap bean plants using a small plot sprayer delivering 50 gallons of water per acre. A total of three applications were used for each sample and positive control. Disease state was evaluated beginning 8 days after the first application and ending 37 days after the third and final application. Percent Disease Severity was assessed and AUDPC was calculated in the same manner as noted in Example 4.1.
row,Molecule,Disease state compared to treatment with the chemical standard (AUDPC)
1,B1,no significant difference
2,B2,no significant difference
3,B3,no significant difference
